The labels stand for the following.
B1: Sec13/31p (complex, S. cerevisiae)
chain 1: MVVIANAHNELIHDAVLDYYGKRLATCSSDKTIKIFEVEGETHKLIDTLTGHEGPVWRVDWAHPKFGTILASCSYDGKVLIWKEENGRWSQIAVHAVHSASVNSVQWAPHEYGPLLLVASSDGKVSVVEFKENGTTSPIIIDAHAIGVNSASWAPATIEEDGEHNGTKESRKFVTGGADNLVKIWKYNSDAQTYVLESTLEGHSDWVRDVAWSPTVLLRSYLASVSQDRTCIIWTQDNEQGPWKKTLLKEEKFPDVLWRASWSLSGNVLALSGGDNKVTLWKENLEGKWEPAGEVHQ
chain 2: MVKLAEFSRTATFAWSHDKIPLLVSGTVSGTVDANFSTDSSLELWSLLAADSEKPIASLQVDSKFNDLDWSHNNKIIAGALDNGSLELYSTNEANNAINSMARFSNHSSSVKTVKFNAKQDNVLASGGNNGEIFIWDMNKCTESPSNYTPLTPGQSMSSVDEVISLAWNQSLAHVFASAGSSNFASIWDLKAKKEVIHLSYTSPNSGIKQQLSVVEWHPKNSTRVATATGSDNDPSILIWDLRNANTPLQTLNQGHQKGILSLDWCHQDEHLLLSSGRDNTVLLWNPESAEQLSQFPARGNWCFKTKFAPEAPDLFACASFDNKIEVQTLQNLTNTLDEQETETKQQESETDFWNNVSREESKEKPTVFHLQAPTWYGEPSPAAHWAFGGKLVQITPDGKGVSITNPKISGLESNTTLSEALKTKDFKPLINQRLVKVIDDVNEEDWNLLEKLSMDGTEEFLKEALAFDNDESDAQDDANNEKEDDGEEFFQQIETNFQPEGDFSLSGNIEQTISKNLVSGNIKSAVKNSLENDLLMEAMVIALDSNNERLKESVKNAYFAKYGSKSSLSRILYSISKREVDDLVENLDVSQWKFISKAIQNLYPNDIAQRNEMLIKLGDRLKENGHRQDSLTLYLAAGSLDKVASIWLSEFPDLEDKLKKDNKTIYEAHSECLTEFIERFTVFSNFINGSSTINNEQLIAKFLEFINLTTSTGNFELATEFLNSLPSDNEEVKTEKARVLIASGKSLPAQNPATATTSKAKYTNAKTNKNVPVLPTPGMPSTTSIPSMQAPFYGMTPGASANALPPKPYVPATTTSAPVHTEGKYAPPSQPSMASPFVNKTNSSTRLNSFAPPPNPYATATVPATNVSTTSIPQNTFAPIQPGMPIMGDYNAQSSSIPSQPPINAVSGQTPHLNRKANDGWNDLPLKVKEKPSRAKAVSVAPPNILSTPTPLNGIPANAASTMPPPPLSRAPSSVSMVSPPPLHKNSRVPSLVATSESPRASISNPYAPPQSSQQFPIGTISTANQTSNTAQVASSNPYAPPPQQRVATPLSGGVPPAPLPKASNPYAPTATTQPNGSSYPPTGPYTNNHTMTSPPPVFNKPPTGPPPISMKKRSNKLASIEQNPSQGATYPPTLSSSASPLQPSQPPTLASQVNTSAENVSHEIPADQQPIVDFLKEELARVTPLTPKEYSKQLKDCDKRLKILFYHLEKQDLLTQPTIDCLHDLVALMKEKKYKEAMVIHANIATNHAQEGGNWLTGVKRLIGIAEATLN
B2: Sec23/24p (complex, S. cerevisiae)
chain 1: MDFETNEDINGVRFTWNVFPSTRSDANSNVVPVGCLYTPLKEYDELNVAPYNPVVCSGPHCKSILNPYCVIDPRNSSWSCPICNSRNHLPPQYTNLSQENMPLELQSTTIEYITNKPVTVPPIFFFVVDLTSETENLDSLKESIITSLSLLPPNALIGLITYGNVVQLHDLSSETIDRCNVFRGDREYQLEALTEMLTGQKPTGPGGAASHLPNAMNKVTPFSLNRFFLPLEQVEFKLNQLLENLSPDQWSVPAGHRPLRATGSALNIASLLLQGCYKNIPARIILFASGPGTVAPGLIVNSELKDPLRSHHDIDSDHAQHYKKACKFYNQIAQRVAANGHTVDIFAGCYDQIGMSEMKQLTDSTGGVLLLTDAFSTAIFKQSYLRLFAKDEEGYLKMAFNGNMAVKTSKDLKVQGLIGHASAVKKTDANNISESEIGIGATSTWKMASLSPYHSYAIFFEIANTAANSNPMMSAPGSADRPHLAYTQFITTYQHSSGTNRIRVTTVANQLLPFGTPAIAASFDQEAAAVLMARIAVHKAETDDGADVIRWLDRTLIKLCQKYADYNKDDPQSFRLAPNFSLYPQFTYYLRRSQFLSVFNNSPDETAFYRHIFTREDTTNSLIMIQPTLTSFSMEDDPQPVLLDSISVKPNTILLLDTFFFILIYHGEQIAQWRKAGYQDDPQYADFKALLEEPKLEAAELLVDRFPLPRFIDTEAGGSQARFLLSKLNPSDNYQDMARGGSTIVLTDDVSLQNFMTHLQQVAVSGQA
chain 2: MSHHKKRVYPQAQLQYGQNATPLQQPAQFMPPQDPAAAGMSYGQMGMPPQGAVPSMGQQQFLTPAQEQLHQQIDQATTSMNDMHLHNVPLVDPNAYMQPQVPVQMGTPLQQQQQPMAAPAYGQPSAAMGQNMRPMNQLYPIDLLTELPPPITDLTLPPPPLVIPPERMLVPSELSNASPDYIRSTLNAVPKNSSLLKKSKLPFGLVIRPYQHLYDDIDPPPLNEDGLIVRCRRCRSYMNPFVTFIEQGRRWRCNFCRLANDVPMQMDQSDPNDPKSRYDRNEIKCAVMEYMAPKEYTLRQPPPATYCFLIDVSQSSIKSGLLATTINTLLQNLDSIPNHDERTRISILCVDNAIHYFKIPLDSENNEESADQINMMDIADLEEPFLPRPNSMVVSLKACRQNIETLLTKIPQIFQSNLITNFALGPALKSAYHLIGGVGGKIIVVSGTLPNLGIGKLQRRNESGVVNTSKETAQLLSCQDSFYKNFTIDCSKVQITVDLFLASEDYMDVASLSNLSRFTAGQTHFYPGFSGKNPNDIVKFSTEFAKHISMDFCMETVMRARGSTGLRMSRFYGHFFNRSSDLCAFSTMPRDQSYLFEVNVDESIMADYCYVQVAVLLSLNNSQRRIRIITLAMPTTESLAEVYASADQLAIASFYNSKAVEKALNSSLDDARVLINKSVQDILATYKKEIVVSNTAGGAPLRLCANLRMFPLLMHSLTKHMAFRSGIVPSDHRASALNNLESLPLKYLIKNIYPDVYSLHDMADEAGLPVQTEDGEATGTIVLPQPINATSSLFERYGLYLIDNGNELFLWMGGDAVPALVFDVFGTQDIFDIPIGKQEIPVVENSEFNQRVRNIINQLRNHDDVITYQSLYIVRGASLSEPVNHASAREVATLRLWASSTLVEDKILNNESYREFLQIMKARISK
B3: Sar1p (enzyme)
chain: not shown

Like-named read-outs stand apart in the source and are kept apart here.

What all share (experiment): liposome flotation
The test “Sec23/24p” deals with B2.
Test [1] addresses T1, MBP–Sec16p (S. cerevisiae, UniProt P48415 1-2195).
The target of test [2] is T1, MBP–Sec16p. The source holds these as a separate data set.

T1 sequence (P48415 whole entry): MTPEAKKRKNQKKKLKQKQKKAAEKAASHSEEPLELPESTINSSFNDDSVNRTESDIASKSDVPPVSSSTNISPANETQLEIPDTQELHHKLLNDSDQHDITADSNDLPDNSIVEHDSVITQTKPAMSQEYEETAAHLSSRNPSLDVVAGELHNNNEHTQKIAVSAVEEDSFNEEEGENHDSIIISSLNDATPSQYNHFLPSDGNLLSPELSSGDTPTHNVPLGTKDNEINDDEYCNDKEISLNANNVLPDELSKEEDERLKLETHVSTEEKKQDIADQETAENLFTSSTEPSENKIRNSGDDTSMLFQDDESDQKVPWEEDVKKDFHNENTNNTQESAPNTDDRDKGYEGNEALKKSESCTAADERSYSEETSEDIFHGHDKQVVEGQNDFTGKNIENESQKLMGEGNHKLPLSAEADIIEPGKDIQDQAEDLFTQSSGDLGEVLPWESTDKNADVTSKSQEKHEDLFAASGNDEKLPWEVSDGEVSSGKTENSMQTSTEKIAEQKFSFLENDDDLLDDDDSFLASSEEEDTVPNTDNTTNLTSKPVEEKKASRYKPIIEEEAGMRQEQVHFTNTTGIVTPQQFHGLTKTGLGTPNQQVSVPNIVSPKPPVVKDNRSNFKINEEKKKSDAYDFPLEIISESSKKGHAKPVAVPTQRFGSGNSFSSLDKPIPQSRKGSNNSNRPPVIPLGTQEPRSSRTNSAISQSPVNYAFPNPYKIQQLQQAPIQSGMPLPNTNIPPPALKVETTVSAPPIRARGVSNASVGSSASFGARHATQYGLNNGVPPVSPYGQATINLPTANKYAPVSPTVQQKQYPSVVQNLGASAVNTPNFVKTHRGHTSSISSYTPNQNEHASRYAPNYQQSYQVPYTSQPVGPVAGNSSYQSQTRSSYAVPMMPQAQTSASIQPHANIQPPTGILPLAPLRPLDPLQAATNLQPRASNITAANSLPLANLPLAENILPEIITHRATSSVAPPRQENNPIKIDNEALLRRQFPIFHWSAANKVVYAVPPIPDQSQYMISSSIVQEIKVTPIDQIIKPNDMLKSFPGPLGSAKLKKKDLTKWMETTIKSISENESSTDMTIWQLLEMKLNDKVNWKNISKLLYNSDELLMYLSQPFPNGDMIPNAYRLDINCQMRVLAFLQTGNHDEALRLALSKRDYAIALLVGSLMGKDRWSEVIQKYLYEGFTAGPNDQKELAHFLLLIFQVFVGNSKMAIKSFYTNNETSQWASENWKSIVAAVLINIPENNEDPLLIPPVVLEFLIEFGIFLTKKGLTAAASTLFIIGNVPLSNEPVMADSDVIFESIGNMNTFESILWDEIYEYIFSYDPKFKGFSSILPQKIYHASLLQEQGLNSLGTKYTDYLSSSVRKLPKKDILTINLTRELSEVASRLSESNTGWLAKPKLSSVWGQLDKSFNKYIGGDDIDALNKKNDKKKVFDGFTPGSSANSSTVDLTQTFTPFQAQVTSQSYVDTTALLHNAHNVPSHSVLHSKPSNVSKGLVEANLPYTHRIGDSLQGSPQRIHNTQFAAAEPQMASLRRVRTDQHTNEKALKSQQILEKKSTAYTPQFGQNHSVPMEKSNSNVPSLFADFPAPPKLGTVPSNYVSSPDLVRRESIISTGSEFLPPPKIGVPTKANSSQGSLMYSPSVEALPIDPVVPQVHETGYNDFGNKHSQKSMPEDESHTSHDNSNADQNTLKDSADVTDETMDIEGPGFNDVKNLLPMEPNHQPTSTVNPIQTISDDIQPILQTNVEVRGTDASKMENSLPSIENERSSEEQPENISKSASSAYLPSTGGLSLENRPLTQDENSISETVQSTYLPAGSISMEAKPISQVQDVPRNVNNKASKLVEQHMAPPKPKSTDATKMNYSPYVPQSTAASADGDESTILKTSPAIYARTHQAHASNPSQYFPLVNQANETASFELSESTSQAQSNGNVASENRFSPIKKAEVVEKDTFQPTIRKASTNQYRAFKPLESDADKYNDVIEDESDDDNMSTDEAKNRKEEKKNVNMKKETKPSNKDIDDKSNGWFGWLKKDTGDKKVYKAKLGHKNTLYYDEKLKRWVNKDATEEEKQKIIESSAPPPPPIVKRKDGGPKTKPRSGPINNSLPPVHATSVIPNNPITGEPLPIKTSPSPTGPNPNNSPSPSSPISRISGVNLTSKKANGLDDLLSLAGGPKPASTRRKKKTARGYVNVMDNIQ

Turning to B1, in the test with Sec23/24p, the binding result is listed as “binds”.

Regarding B2, in the test with MBP–Sec16p [1], the binding result is listed as “binds”.

Regarding B3, in the test with MBP–Sec16p [2], the binding result was “binds”.
